The conditions of this data set: Bacillus amyloliquefaciens, 25 °C, Urea, NMR, NaCl 1 M, whole UniProt chain shown.

One protein from FireProtDB (doi:10.1021/bi00123a006) can be followed below.

B1: Ribonuclease wild type, P00648 (protein)
chain: MMKMEGIALKKRLSWISVCLLVLVSAAGMLFSTAAKTETSSHKAHTEAQVINTFDGVADYLQTYHKLPDNYITKSEAQALGWVASKGNLADVAPGKSIGGDIFSNREGKLPGKSGRTWREADINYTSGFRNSDRILYSSDWLIYKTTDHYQTFTKIR
In the case of B1, the unfolding free energy (pH 4.4, Sodium acetate 30 mM) stood at 8.13 kcal/mol and the unfolding free energy (pH 8.9, Tris 30 mM) amounted to 8.05 kcal/mol.
